Source: patent US20240392004A1 (IMMUNOWAKE, published 2024)
Residue numbers refer to the chain shown, from its start. Numbers in names are those of the source.

B1: IL-12(E59A/F60A)/CD155-Fc (IL-12 at hinge) (Fc fusion)
chain 1: WPPPGTGDVVVQAPTQVPGFLGDSVTLPCYLQVPNMEVTHVSQLTWARHGESGSMAVFHQTQGPSYSESKRLEFVAARLGAELRNASLRMFGLRVEDEGNYTCLFVTFPQGSRSVDIWLRVLAKPQNTAEVQKVQLTGEPVPMARCVSTGGRPPAQITWHSDLGGMPNTSQVPGFLSGTVTVTSLWILVPSSQVDGKNVTCKVEHESFEKPQLLTVNLTVYYPPEVSISGYDNNWYLGQNEATLTCDARSNPEPTGYNWSTTMGPLPPFAVAQGAQLLIRPVDKPINTTLICNVTNALGARQAELTVQVKEGPPSEHSGISRNGGGGSGGGIWELKKDVYVVELDWYPDAPGEMVVLTCDTPEEDGITWTLDQSSEVLGSGKTLTIQVKAAGDAGQYTCHKGGEVLSHSLLLLHKKEDGIWSTDILKDQKEPKNKTFLRCEAKNYSGRFTCWWLTTISTDLTFSVKSSRGSSDPQGVTCGAATLSAERVRGDNKEYEYSVECQEDSACPAAEESLPIEVMVDAVHKLKYENYTSSFFIRDIIKPDPPKNLQLKPLKNSRQVEVSWEYPDTWSTPHSYFSLTFCVQVQGKSKREKKDRVFTDKTSATVICRKNASISVRAQDRYYSSSWSEWASVPCSGGGGSGGGSGGGGSRNLPVATPDPGMFPCLHHSQNLLRAVSNMLQKARQTLEFYPCTSEEIDHEDITKDKTSTVEACLPLELTKNESCLNSRETSFITNGSCLASRKTSFMMALCLSSIYEDLKMYQVEFKTMNAKLLMDPKRQIFLDQNMLAVIDELMQALNFNSETVPQKSSLEEPDFYKTKIKLCILLHAFRIRAVTIDRVMSYLNASGGGGSGGGDKTHTCPPCPAPEDEGGPSVFLFPPKPKDTLMISRTPEVTCVVVDVSHEDPEVKFNWYVDGVEVHNAKTKPREEQYNSTYRVVSVLTVLHQDWLNGKEYKCKVSNKALPAPIEKTISKAKGQPREPQVYVYPPSREEMTKNQVSLTCLVKGFYPSDIAVEWESNGQPENNYKTTPPVLDEDGSFALVSKLTVDKSRWQQGNVFSCSVMHEALHNHYTQKSLSLSPGK
chain 2: WPPPGTGDVVVQAPTQVPGFLGDSVTLPCYLQVPNMEVTHVSQLTWARHGESGSMAVFHQTQGPSYSESKRLEFVAARLGAELRNASLRMFGLRVEDEGNYTCLFVTFPQGSRSVDIWLRVLAKPQNTAEVQKVQLTGEPVPMARCVSTGGRPPAQITWHSDLGGMPNTSQVPGFLSGTVTVTSLWILVPSSQVDGKNVTCKVEHESFEKPQLLTVNLTVYYPPEVSISGYDNNWYLGQNEATLTCDARSNPEPTGYNWSTTMGPLPPFAVAQGAQLLIRPVDKPINTTLICNVTNALGARQAELTVQVKEGPPSEHSGISRNGGGGSGGGDKTHTCPPCPAPEKKGGPSVFLFPPKPKDTLMISRTPEVTCVVVDVSHEDPEVKFNWYVDGVEVHNAKTKPREEQYNSTYRVVSVLTVLHQDWLNGKEYKCKVSNKALPAPIEKTISKAKGQPREPQVYVLPPSREEMTKNQVSLLCLVKGFYPSDIAVEWESNGQPENRYMTWPPVLDSDGSFFLYSKLTVDKSRWQQGNVFSCSVMHEALHNHYTQKSLSLSPGK
B2: IL-12(E59A/F60A)/IL-2(L18R/Q22E/R38D/K43E/E61R)/CD155-Fc (Fc fusion)
chain 1: B1 chain 1
chain 2: WPPPGTGDVVVQAPTQVPGFLGDSVTLPCYLQVPNMEVTHVSQLTWARHGESGSMAVFHQTQGPSYSESKRLEFVAARLGAELRNASLRMFGLRVEDEGNYTCLFVTFPQGSRSVDIWLRVLAKPQNTAEVQKVQLTGEPVPMARCVSTGGRPPAQITWHSDLGGMPNTSQVPGFLSGTVTVTSLWILVPSSQVDGKNVTCKVEHESFEKPQLLTVNLTVYYPPEVSISGYDNNWYLGQNEATLTCDARSNPEPTGYNWSTTMGPLPPFAVAQGAQLLIRPVDKPINTTLICNVTNALGARQAELTVQVKEGPPSEHSGISRNGGGSGAPTSSSTKKTQLQLEHLRLDLEMILNGINNYKNPKLTDMLTFEFYMPKKATELKHLQCLERELKPLEEVLNLAQSKNFHLRPRDLISNINVIVLELKGSETTFMCEYADETATIVEFLNRWITFCQSIISTLTGGGGSGGGDKTHTCPPCPAPEKKGGPSVFLFPPKPKDTLMISRTPEVTCVVVDVSHEDPEVKFNWYVDGVEVHNAKTKPREEQYNSTYRVVSVLTVLHQDWLNGKEYKCKVSNKALPAPIEKTISKAKGQPREPQVYVLPPSREEMTKNQVSLLCLVKGFYPSDIAVEWESNGQPENRYMTWPPVLDSDGSFFLYSKLTVDKSRWQQGNVFSCSVMHEALHNHYTQKSLSLSPGK
B3: IL-12(E59A/F60A)/IL-2(R38D/K43E/E61R/Q126T)/CD155-Fc (Fc fusion)
chain 1: B1 chain 1
chain 2: B2 chain 2 with R346L, E350Q, Q454T
B4: IL-12(E59A/F60A)/IL-2(L18R/Q22E/R38D/K43E/E61R/Q126T)/CD155-Fc (Fc fusion)
chain 1: B1 chain 1
chain 2: B2 chain 2 with Q454T
B5: CD155-Fc (control) (Fc fusion)
chain 1: B1 chain 2 with K345D, K346E, L462Y, L477T, R501N, M503K, W505T, S511E, F516A, Y518V
chain 2: B1 chain 2
B6: IL-2(L18R/Q22E/R38D/K43E/E61R)/CD155-Fc (Fc fusion)
chain 1: B1 chain 2 with K345D, K346E, L462Y, L477T, R501N, M503K, W505T, S511E, F516A, Y518V
chain 2: B2 chain 2
B7: IL-2(R38D/K43E/E61R/Q126T)/CD155-Fc (Fc fusion)
chain 1: B1 chain 2 with K345D, K346E, L462Y, L477T, R501N, M503K, W505T, S511E, F516A, Y518V
chain 2: B2 chain 2 with R346L, E350Q, Q454T
B8: IL-2(L18R/Q22E/R38D/K43E/E61R/Q126T)/CD155-Fc (Fc fusion)
chain 1: B1 chain 2 with K345D, K346E, L462Y, L477T, R501N, M503K, W505T, S511E, F516A, Y518V
chain 2: B2 chain 2 with Q454T
B9: IL-2(L18R/Q22E/R38D/K43E/E61R/Q126T/S130R)/CD155-Fc (Fc fusion)
chain 1: B1 chain 2 with K345D, K346E, L462Y, L477T, R501N, M503K, W505T, S511E, F516A, Y518V
chain 2: B2 chain 2 with Q454T, S458R

target: human IL-12 receptor complex (IL-12Rβ1 and IL-12Rβ2) (human, UniProt P42701 24-662; Q99665 24-862); assay: cell-based or functional assay
Sequence (Q99665 24-862, chain 2 of 2, other chains not shown): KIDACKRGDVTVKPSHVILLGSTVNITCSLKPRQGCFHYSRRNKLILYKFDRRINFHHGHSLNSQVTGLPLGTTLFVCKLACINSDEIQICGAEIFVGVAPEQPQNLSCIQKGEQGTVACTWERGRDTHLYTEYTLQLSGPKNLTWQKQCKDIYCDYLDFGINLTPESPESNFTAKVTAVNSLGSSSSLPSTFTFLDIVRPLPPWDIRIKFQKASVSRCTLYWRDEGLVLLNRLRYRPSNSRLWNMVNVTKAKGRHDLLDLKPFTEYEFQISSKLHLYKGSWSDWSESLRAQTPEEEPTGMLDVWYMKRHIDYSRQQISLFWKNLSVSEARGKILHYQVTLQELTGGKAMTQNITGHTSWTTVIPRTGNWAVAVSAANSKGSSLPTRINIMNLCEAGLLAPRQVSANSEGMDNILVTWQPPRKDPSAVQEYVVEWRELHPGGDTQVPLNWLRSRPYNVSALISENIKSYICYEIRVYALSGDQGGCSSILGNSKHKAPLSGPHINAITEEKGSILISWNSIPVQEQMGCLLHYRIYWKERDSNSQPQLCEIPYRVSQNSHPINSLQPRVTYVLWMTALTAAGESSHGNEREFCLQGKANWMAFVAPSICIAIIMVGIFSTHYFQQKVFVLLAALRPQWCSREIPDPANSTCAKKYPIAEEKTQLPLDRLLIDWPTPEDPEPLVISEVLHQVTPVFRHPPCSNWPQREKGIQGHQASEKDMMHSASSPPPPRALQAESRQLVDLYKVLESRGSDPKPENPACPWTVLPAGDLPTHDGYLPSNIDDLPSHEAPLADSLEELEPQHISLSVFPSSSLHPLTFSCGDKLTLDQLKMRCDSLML

Binder	IL-12 signal transduction, HEK-IL-12
B1	< 0.2%
B2	< 0.2%
B3	< 0.2%
B4	< 0.2%

target: T1, human TIGIT on HEK-Blue reporter cells (human, UniProt Q495A1 22-244); assay: cell-based or functional assay
T1 sequence (looked up): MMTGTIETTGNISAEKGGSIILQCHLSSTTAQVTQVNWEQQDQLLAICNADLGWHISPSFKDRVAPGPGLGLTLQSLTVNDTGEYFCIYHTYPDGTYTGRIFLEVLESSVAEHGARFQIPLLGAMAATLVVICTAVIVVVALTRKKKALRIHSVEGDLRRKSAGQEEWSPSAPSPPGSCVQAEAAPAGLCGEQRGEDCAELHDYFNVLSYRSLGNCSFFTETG

Binder	IL-2 signal transduction, HEK-IL-2-TIGIT	IL-12 signal transduction, HEK-IL-12-TIGIT
B1	< 0.1%	21%
B2	78%	21%
B3	35%	17%
B4	20%	19%
B5	< 0.1%	–
B6	56%	–
B7	29%	–
B8	15%	–
B9	< 0.1%	–

target: T2, human IL-2 receptor (IL-2Rα, IL-2Rβ, IL-2Rγ) (human, UniProt P01589 22-272; P14784 27-551; P31785 23-369); assay: cell-based or functional assay
T2 sequence (looked up) 1: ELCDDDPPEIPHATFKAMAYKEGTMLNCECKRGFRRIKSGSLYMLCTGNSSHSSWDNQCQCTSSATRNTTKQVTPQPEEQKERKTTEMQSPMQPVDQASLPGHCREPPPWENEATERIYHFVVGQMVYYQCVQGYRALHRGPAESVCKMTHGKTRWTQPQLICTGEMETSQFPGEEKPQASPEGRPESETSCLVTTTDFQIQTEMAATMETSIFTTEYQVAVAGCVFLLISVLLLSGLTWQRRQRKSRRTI
T2 sequence (looked up) 2: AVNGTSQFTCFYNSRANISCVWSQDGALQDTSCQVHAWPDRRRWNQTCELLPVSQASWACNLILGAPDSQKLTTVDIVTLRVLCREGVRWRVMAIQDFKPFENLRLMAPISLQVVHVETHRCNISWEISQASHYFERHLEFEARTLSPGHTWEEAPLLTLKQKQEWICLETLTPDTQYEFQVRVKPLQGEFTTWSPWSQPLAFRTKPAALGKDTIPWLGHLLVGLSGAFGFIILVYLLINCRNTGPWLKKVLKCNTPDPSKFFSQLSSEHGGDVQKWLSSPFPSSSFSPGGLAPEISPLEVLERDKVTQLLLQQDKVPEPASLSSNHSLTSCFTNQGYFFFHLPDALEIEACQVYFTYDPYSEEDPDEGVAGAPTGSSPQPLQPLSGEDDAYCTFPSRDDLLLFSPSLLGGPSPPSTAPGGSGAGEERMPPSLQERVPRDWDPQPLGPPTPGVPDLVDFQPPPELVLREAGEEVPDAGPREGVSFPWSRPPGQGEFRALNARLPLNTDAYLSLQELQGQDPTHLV
T2 sequence (looked up) 3: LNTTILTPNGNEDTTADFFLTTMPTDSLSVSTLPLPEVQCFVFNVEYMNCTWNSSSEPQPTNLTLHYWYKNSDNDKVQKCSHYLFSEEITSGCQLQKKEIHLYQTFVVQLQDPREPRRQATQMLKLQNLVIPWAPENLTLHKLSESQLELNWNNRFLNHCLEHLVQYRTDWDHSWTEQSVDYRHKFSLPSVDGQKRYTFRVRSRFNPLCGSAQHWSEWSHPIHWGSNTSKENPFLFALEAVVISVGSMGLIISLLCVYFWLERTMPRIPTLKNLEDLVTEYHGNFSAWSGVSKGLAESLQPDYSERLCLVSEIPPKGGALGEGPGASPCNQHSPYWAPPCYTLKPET

Binder	IL-2 signal transduction, HEK-IL-2
B1	< 0.1%
B2	12%
B3	4%
B4	2%
B5	< 0.1%
B6	9%
B7	3%
B8	2%
B9	< 0.1%
